What was measured:
[1] = surface biotinylation, HEK293; conditions: glycan changed form; control: UT-A3 alone
[2] = cycloheximide chase 12 h, Western blot, HEK293; conditions: glycan changed form; control: UT-A3 alone
[3] = surface biotinylation, Xenopus oocytes
[4] = FSK-stimulated surface biotinylation, HEK293; conditions: glycan lost; control: wild type
[5] = FSK-stimulated total UT-A3, Western blot, HEK293; conditions: glycan lost; control: wild type
[6] = glycan lost, control: wild type UT-A3, untreated

B1: UT-A3: ST6GalI co-transfection (protein)
parent chain: MSDHPLKEMSDNNRSPPLPEPLSSRYKLYESELSSPTWPSSSQDTHPALPLLEMPEEKDLRSSDEDSHIVKIEKPNERSKRRESELPRRASAGRGAFSLFQAVSYLTGDMKECKNWLKDKPLVLQFLDWVLRGAAQVMFVNNPLSGLIIFIGLLIQNPWWTIAGALGTVVSTLAALALSQDRSAIASGLHGYNGMLVGLLVAVFSEKLDYYWWLLFPVTFASMACPVISSALSTVFAKWDLPVFTLPFNIALTLYLAATGHYNLFFPTTLVKPASSAPNITWSEIEMPLLLQTIPVGVGQVYGCDNPWTGGVILVALFISSPLICLHAAIGSIVGLLAALTVATPFETIYTGLWSYNCVLSCVAIGGMFYVLTWQTHLLALVCALFCAYTGAALSNMMAVVGVPPGTWAFCLSTLTFLLLTSNNPGIHKLPLSKVTYPEANRIYFLTAKRSDEQKPPNGG
[1]
  localisation_or_trafficking: increases
[2]
  degradation_or_half_life: increases

B2: UT-A3: ST6GalI cRNA co-injection (protein)
parent chain: B1 parent chain
[3]; glycan changed form, control: UT-A3 cRNA alone
  localisation_or_trafficking: increases

B3: UT-A3: N279Q (protein)
parent chain: B1 parent chain
[3]; [6]
  localisation_or_trafficking: decreases
[4]
  localisation_or_trafficking, other: % increase by FSK: decreases
[5]
  expression_or_secretion, other: % increase by FSK: decreases

B4: UT-A3: tunicamycin (protein)
parent chain: B1 parent chain
[3]; [6]
  localisation_or_trafficking: decreases

B5: UT-A3: ST3GalIV co-transfection (protein)
parent chain: B1 parent chain
[1]
  localisation_or_trafficking: no change
